Target: the molecule itself
Assay: Native PAGE, self-association; the cell continues below as 'dimer ~7 forms visible from monomer to multimer'
Text: Native PAGE was run for information of rhGALC formations at neutral pH. […] Final product TG1106 was compared to rhGALC in-house standard StG03 and the pattern was similar. It could be that the lowest band (apparent MW 80-100 kDa) is rhGALC monomer and the second band is rhGALC dimer, followed by formations adding on more rhGALC monomers and/or dimers. Up to seven forms of rhGALC were visualized on the gel. rhGALC dimer was the most pronounced independent on load. An earlier electron microscopy study has verified that several forms exist of which the major form has a diameter of ˜20 nm, which could correspond to rhGALC dimer.

B1: recombinant human Galactocerebroside beta-Galactosidase (rhGALC), full length 80 kDa form (enzyme)
chain: YVLDDSDGLGREFDGIGAVSGGGATSRLLVNYPEPYRSQILDYLFKPNFGASLHILKVEIGGDGQTTDGTEPSHMHYALDENYFRGYEWWLMKEAKKRNPNITLIGLPWSFPGWLGKGFDWPYVNLQLTAYYVVTWIVGAKRYHDLDIDYIGIWNERSYNANYIKILRKMLNYQGLQRVKIIASDNLWESISASMLLDAELFKVVDVIGAHYPGTHSAKDAKLTGKKLWSSEDFSTLNSDMGAGCWGRILNQNYINGYMTSTIAWNLVASYYEQLPYGRCGLMTAQEPWSGHYVVESPVWVSAHTTQFTQPGWYYLKTVGHLEKGGSYVALTDGLGNLTIIIETMSHKHSKCIRPFLPYFNVSQQFATFVLKGSFSEIPELQVWYTKLGKTSERFLFKQLDSLWLLDSDGSFTLSLHEDELFTLTTLTTGRKGSYPLPPKSQPFPSTYKDDFNVDYPFFSEAPNFADQTGVFEYFTNIEDPGEHHFTLRQVLNQRPITWAADASNTISIIGDYNWTNLTIKCDVYIETPDTGGVFIAGRVNKGGILIRSARGIFFWIFANGSYRVTGDLAGWIIYALGRVEVTAKKWYTLTLTIKGHFASGMLNDKSLWTDIPVNFPKNGWAAIGTHSFEFAQFDNFLVEATR
modifications: glycosylated (about 7% carbohydrate w:w, 2-3 mol mannose-6-phosphate per mol), sites not stated
notes: Expressed in CHO cells and purified from harvest; P45803 looks like a misprint; also called Galactocerebrosidase; Galactosylceramidase
B1: binds.

Reference: patent publication US20180112202A1 (ACE BIOSCIENCES A S, published 2018)
